Assay [1] concerns SHIV-SF162P3. The assay is described as follows: Antibody infusion in rhesus monkeys chronically infected with SHIV-SF162P3: plasma viral RNA. The assay is classed as in vivo, rhesus monkeys (Macaca mulatta). The source says: (§1) Groups were balanced for susceptible and resistant TRIM5α alleles (Lim et al., PLoS Pathog. 6: e1000738, 2010; Letvin et al., Sci Transl Med. 3: 81 ra36, 2011). Animals infected by the intrarectal route with our rhesus-derived SHIV-SF162P3 challenge stock for 9 months prior to antibody administration were utilized for the studies. […] 3BNC117 was manufactured by Celldex Therapeutics in CHO cells and purified by chromatography and sterile filtration. All the antibody preparations were endotoxin free. Cocktails of antibodies or single antibodies were administered to monkeys once or twice by the intravenous route at a dose of 10 mg/kg for each antibody. Monkeys were bled up to three times per week for viral loads. All animal studies were approved by the appropriate Institutional Animal Care and Use Committee (IACUC).
To evaluate the therapeutic potential of broad and potent HIV-1-specific antibodies in nonhuman primates, we infused cocktails of antibodies, as well as single antibodies, in chronically SHIV-infected rhesus monkeys.
We next investigated the therapeutic efficacy of a single infusion of the cocktail of three antibodies as well as a combination of only two antibodies. […] Viral rebound occurred in the majority of animals between day 28 and day 84 (FIGS. 2A and 2B) and was associated with declines of serum antibody titers to undetectable levels (FIGS. 2E and 2F).
It is generally believed that a combination of antibodies directed against multiple epitopes will be required for virologic control (Klein et al., Nature. 492: 118-122, 2012; Poignard et al., Immunity. 10: 431-438, 1999; Trkola et al., Nat Med. 11: 615-622, 2005; Diskin et al., J Exp Med. 210:1235-1249, 2013). However, the current extraordinarily potent and broad antibodies have not previously been evaluated in nonhuman primates with intact immune systems.

Assay [2] concerns SHIV-SF162P3 proviral DNA. The assay is described as follows: Proviral DNA assay (PBMC, lymph node, gastrointestinal mucosa) after antibody infusion. Type of assay: in vivo, rhesus monkeys (Macaca mulatta). As to conditions: day 14 after single infusion 10 mg/kg.
Description: as §1
Lymph node and gastrointestinal mucosal biopsies were processed as single cell suspensions essentially as previously described (Li et al., J Virol 85: 11007-11015, 2011). Tissue-specific proviral DNA was quantitated as previously reported (Whitney et al., J Virol. 83: 10840-10843, 2009). Total cellular DNA was isolated from 5×10^6 cells using a QIAamp DNA Blood Mini kit (Qiagen). The absolute quantification of viral DNA in each sample was determined by qPCR using primers specific to a conserved region SIVmac239. All samples were directly compared to a linear virus standard and the simultaneous amplification of a fragment of human GAPDH gene. The sensitivity of linear standards was compared against the 3D8 cell line as a reference standard as described (Whitney et al., J Virol. 83: 10840-10843, 2009). All PCR assays were performed with 100 and 200 ng of sample DNA.

For the next assay, the system named is clade C viruses. The conditions noted are these: cited from earlier work.
Assay [3] deals with SHIV-SF162P3. The assay is described as follows: Sensitivity of SHIV-SF162P3 to 3BNC117. Type of assay: cell-based.

B1: PGT121: N332 glycan-dependent antibody; CDRs SEQ ID NO: 1-6, VH SEQ ID NO: 7, VL SEQ ID NO: 8 (antibody, V domains shown)
VH: QMQLQESGPGLVKPSETLSLTCSVSGASISDSYWSWIRRSPGKGLEWIGYVHKSGDTNYSPSLKSRVNLSLDTSKNQVSLSLVAATAADSGKYYCARTLHGRRIYGIVAFNEWFTYFYMDVWGNGTQVTVSS
VL: SDISVAPGETARISCGEKSLGSRAVQWYQHRAGQAPSLIIYNNQDRPSGIPERFSGSPDSPFGTTATLTITSVEAGDEADYYCHIWDSRVPTKWVFGGGTTLTVL
As to B1, in the assay on SHIV-SF162P3 [1] (baseline <3.5 log RNA copies/ml, monkeys 4905 and DN1G), the “no evidence of viral rebound for” value is on record as “over 100 days”. In addition, in the assay on SHIV-SF162P3 [1] (one infusion on day 0, n=3), the “time virtually undetectable viral RNA was maintained after treatment” value is recorded as “at least 15 days”; the “viral RNA after treatment” value is recorded as “virtually undetectable levels of viral RNA within days of treatment”; the “virologic suppression compared to 10-1074, 3BNC117, or VRC07-523” value is on record as “extremely potent virologic suppression”. Also, the “animals with rapid virologic control to undetectable levels by day 7” value in the assay on SHIV-SF162P3 [1] (single i.v. infusion day 0, 10 mg/kg of each antibody) is 4 of 4. Also, the “outcome in one animal (monkey DN1G)” value in the assay with SHIV-SF162P3 [1] (single infusion 10 mg/kg) is reported as “long-term virologic control”. Moreover, in assay [2] (P=0.05), the “reduction of proviral DNA in lymph nodes vs DEN3 control” value worked out at 4 fold and the “reduction of proviral DNA in peripheral blood vs DEN3 control” value was found to be 6 fold. Moreover, in assay [2] (P=0.1), the “reduction of proviral DNA in gastrointestinal mucosa vs DEN3 control” value stood at 4 fold. For the same molecule, in the assay with clade C viruses, the “clade C viruses covered” value was “approximately 70%”.

B2: 3BNC117: CD4bs-specific antibody; light chain SEQ ID NO: 257, heavy chain SEQ ID NO: 258 (antibody, listed as Homo sapiens)
heavy: QVQLLQSGAAVTKPGASVRVSCEASGYNIRDYFIHWWRQAPGQGLQWVGWINPKTGQPNNPRQFQGRVSLTRHASWDFDTFSFYMDLKALRSDDTAVYFCARQRSDYWDFDVWGSGTQVTVSS
light: DIQMTQSPSSLSASVGDTVTITCQANGYLNWYQQRRGKAPKLLIYDGSKLERGVPSRFSGRRWGQEYNLTINNLQPEDIATYFCQVYEFVVPGTRLDLKRTVA
Turning to B2, in the assay on SHIV-SF162P3 [1] (single infusion 10 mg/kg), the “transient reduction of plasma viral loads” value is listed as 0.2-1.1 log. Also, the “sensitivity of the SHIV-SF162P3 challenge stock” value with SHIV-SF162P3 [3] (applicant's rhesus-derived challenge stock) is “largely resistant”. For the same molecule, in the assay with SHIV-SF162P3 [3] (cloned pseudovirus), the “sensitivity of the cloned SHIV-SF162P3 pseudovirus” value is recorded as “highly sensitive”.

The values are drawn from US11202830B2, “Human immunodeficiency virus therapies utilizing N332-glycan-dependent antibodies in subjects with low viral loads” (priority 2013, dated 2021).
